Molecular target: extracellular leucine-rich repeat (LRR) domain of OsER1 (OsER1^LRR) (rice (Oryza sativa)) (UniProt Q69SP5)
Assay: ITC; about 0.3 mM OsEPFL peptide injected (24 x 1.5 uL) into 0.03 mM OsER1^LRR in the cell; ITC200, 25 °C, 10 mM Bis-Tris pH 6.0, 100 mM NaCl

UniProt Q69SP5, sequence (Q69SP5 25-577): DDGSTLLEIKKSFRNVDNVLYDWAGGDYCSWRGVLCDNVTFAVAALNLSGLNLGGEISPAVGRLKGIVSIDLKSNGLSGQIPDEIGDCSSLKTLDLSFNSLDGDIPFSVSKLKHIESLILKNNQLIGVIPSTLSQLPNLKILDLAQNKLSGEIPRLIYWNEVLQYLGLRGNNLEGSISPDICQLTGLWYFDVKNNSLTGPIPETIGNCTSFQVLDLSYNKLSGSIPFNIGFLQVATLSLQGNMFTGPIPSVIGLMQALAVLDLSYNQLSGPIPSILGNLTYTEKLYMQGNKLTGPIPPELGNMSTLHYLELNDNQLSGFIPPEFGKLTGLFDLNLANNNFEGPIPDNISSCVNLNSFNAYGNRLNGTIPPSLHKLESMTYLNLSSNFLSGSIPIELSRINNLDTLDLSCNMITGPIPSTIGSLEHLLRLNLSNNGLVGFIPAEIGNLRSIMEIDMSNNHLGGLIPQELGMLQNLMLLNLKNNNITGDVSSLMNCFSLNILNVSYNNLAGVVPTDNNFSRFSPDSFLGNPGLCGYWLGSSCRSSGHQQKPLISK

Row | Substance | Kd [µM]
1 | predicted mature small peptide OsEPFL6 | 1.35
2 | predicted mature small peptide OsEPFL9 | 56.8
3 | predicted mature small peptide OsEPFL7 | 1.02
4 | predicted mature small peptide OsEPFL8 | 18.7
